Test results taken from US20110123544A1 (published 2011).

T1: recombinant human IL-12 (rhIL-12) (human, UniProt P29459 23-219; P29460 23-328)
T1 chain 1: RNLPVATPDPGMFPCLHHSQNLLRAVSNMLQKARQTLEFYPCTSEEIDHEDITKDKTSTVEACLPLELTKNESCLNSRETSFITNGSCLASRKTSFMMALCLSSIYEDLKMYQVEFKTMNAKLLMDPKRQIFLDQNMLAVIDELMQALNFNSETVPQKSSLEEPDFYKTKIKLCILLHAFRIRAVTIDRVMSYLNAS
T1 chain 2: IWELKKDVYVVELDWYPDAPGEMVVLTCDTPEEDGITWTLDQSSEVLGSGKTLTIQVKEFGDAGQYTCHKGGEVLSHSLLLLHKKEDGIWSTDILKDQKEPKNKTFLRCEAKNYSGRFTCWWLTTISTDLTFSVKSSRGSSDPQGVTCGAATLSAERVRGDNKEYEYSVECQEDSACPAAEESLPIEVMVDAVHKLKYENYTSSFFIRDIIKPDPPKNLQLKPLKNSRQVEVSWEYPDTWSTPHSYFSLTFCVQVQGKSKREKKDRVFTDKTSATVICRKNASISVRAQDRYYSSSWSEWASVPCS


Biological target: T1, recombinant human IL-12 (rhIL-12)
Experiment: BIAcore
QSYDMGTHPALL [Y61 L93 M] showed a koff of 0.000275 s⁻¹.
Binder QSYDRITHPALL [Y61 L94 I] has a koff of 0.000276 s⁻¹.
Work on QSYDNGTHPALL [Y61 L93 N] yielded a koff of 0.000316 s⁻¹.
QSYDAGTHPALL [Y61 L93 A] showed a koff of 0.00031 s⁻¹.
Binder QSYDDGTHPALL [Y61 L93 D] has a koff of 0.000343 s⁻¹.
QSYYRGTHPALL [Y61 L92 Y] was tested, and the koff was 0.000511 s⁻¹.
For QSYDRWTHPALL [Y61 L94 W], the koff was 0.000293 s⁻¹.
Binder QSYDIGTHPALL [Y61 L93 I] has a koff of 0.000295 s⁻¹.
With QSYDRPTHPALL [Y61 L94 P] the koff was 0.000332 s⁻¹.
With QSYDRVTHPALL [Y61 L94 V] the koff was 0.000351 s⁻¹.
QSYGRGTHPALL [Y61 L92 G] gave a koff of 0.000349 s⁻¹.
Binder QSYQRGTHPALL [Y61 L92 Q] has a koff of 0.000427 s⁻¹.
In the case of QSYDRDTHPALL [Y61 L94 D], the koff is reported as 0.000253 s⁻¹.
QSYDRTTHPALL [Y61 L94 T] was tested, and the koff was 0.000305 s⁻¹.
QSYDSGTHPALL [Y61 L93 S] gave a koff of 0.000341 s⁻¹.
With QSYDVGTHPALL [Y61 L93 V] the koff was 0.000269 s⁻¹.
In the case of QSYDQGTHPALL [Y61 L93 Q], the koff is reported as 0.0003 s⁻¹.
QSYWRGTHPALL [Y61 L92 W] gave a koff of 0.00072 s⁻¹.
Binder QSYCRGTHPALL [Y61 L92 C] has a koff of 0.000453 s⁻¹.
In the case of QSYARGTHPALL [Y61 L92 A], the koff is reported as 0.000357 s⁻¹.
Work on QSYDYGTHPALL [Y61 L93 Y] yielded a koff of 0.000335 s⁻¹.
For QSYDCGTHPALL [Y61 L93 C], the koff was 0.00032 s⁻¹.
QSYSRGTHPALL [Y61 L92 S] showed a koff of 0.000307 s⁻¹.
For QSYNRGTHPALL [Y61 L92 N], the koff was 0.000347 s⁻¹.
For QSYIRGTHPALL [Y61 L92 I], the koff was 0.000618 s⁻¹.
Binder QSYDRRTHPALL [Y61 L94 R] has a koff of 0.000231 s⁻¹.
QSYDRLTHPALL [Y61 L94 L] was tested, and the koff was 0.000244 s⁻¹.
QSYDGGTHPALL [Y61 L93 G] showed a koff of 0.000392 s⁻¹.
QSYDRSTHPALL [Y61 L94 S] showed a koff of 0.000287 s⁻¹.
QSYDRQTHPALL [Y61 L94 Q] was tested, and the koff was 0.00025 s⁻¹.
